The values below come from patent US20200040358A1 (published 2020).

Numbering of substitutions follows the chain as printed.

In assay [1] the target is T1, NY-ESO-1 peptide on HLA-B*07:02 (human).
T1 peptide: SLLMWITQC
As to the kind of experiment: cytokine release.

Assay [2] has as its target T2, NY-ESO-1 peptide on HLA-A*02:01 (human (alpha3 domain mouse)).
T2 peptide: SLLMWITQC
The assay can be described thus: activation reporter or marker.

For assay [3], the target named is T3, NY-ESO-1 peptide on HLA-A*02:01 (human).
T3 peptide: SLLMWITQC
The assay can be described thus: multimer staining.

B1: TCR18168 (TCR, V domains shown)
Valpha: QSVAQPEDQVNVAEGNPLTVKCTYSVSGNPYLFWYVQYPNRGLQFLLKYITGDNLVKGSYGFEAEFNKSQTSFHLKKPSALVSDSALYFCAVRELYSGAGSYQLTFGKGTKLSVIP
Vbeta: QKPSRDICQRGTSLTIQCQVDSQVTMMFWYRQQPGQSLTLIATANQGSEATYESGFVIDKFPISRPNLTFSTLTVSNMSPEDSSIYLCSVGGAGVTDTQYFGPGTRLTVL
For the molecule B1, the binding result was “no recognition” in assay [1], “recognises” in assay [2] and “recognises” in assay [3].

B2: TCR0036 (TCR, V domains shown)
Valpha: B1 Valpha with E94D, Y96T, S97T
Vbeta: B1 Vbeta
B2: the binding result in assay [3] is given as “recognises”.

B3: TCR0024 (TCR, V domains shown)
Valpha: B1 Valpha with E94D, L95Q, Y96A, S97L
Vbeta: B1 Vbeta
As to B3, in assay [3], the binding result is given as “recognises”.

B4: TCR0022 (TCR, V domains shown)
Valpha: B1 Valpha with E94D, L95D, Y96L, S97V
Vbeta: B1 Vbeta
Take B4: the binding result in assay [3] was “recognises”.

B5: TCR0062 (TCR, V domains shown)
Valpha: B1 Valpha with G98T, A99T, G100F, S101G, Y102W
Vbeta: B1 Vbeta
B5: the binding result in assay [3] is on record as “recognises”.

B6: TCR0032 (TCR, V domains shown)
Valpha: B1 Valpha with E94D, Y96F, S97C
Vbeta: B1 Vbeta
In the case of B6, the binding result in assay [3] is “recognises”.

B7: TCR0014 (TCR, V domains shown)
Valpha: B1 Valpha with E94D, Y96F, S97T
Vbeta: B1 Vbeta
Consider B7, for which the binding result in assay [3] is “recognises”.

B8: TCR0030 (TCR, V domains shown)
Valpha: B1 Valpha with E94D, L95S, Y96K, S97A
Vbeta: B1 Vbeta
Regarding B8, the binding result in assay [3] is recorded as “recognises”.

B9: TCR0012 (TCR, V domains shown)
Valpha: B1 Valpha with E94G, Y96L, S97N
Vbeta: B1 Vbeta
In the case of B9, in assay [3], the binding result is “recognises”.

B10: TCR0060 (TCR, V domains shown)
Valpha: B1 Valpha with G98R, A99G, G100V, S101K, Y102W
Vbeta: B1 Vbeta
Take B10: the binding result in assay [3] is “recognises”.

B11: TCR0050 (TCR, V domains shown)
Valpha: B1 Valpha with G98V, G100V, S101R
Vbeta: B1 Vbeta
Regarding B11, the binding result in assay [3] is reported as “recognises”.

B12: TCR0020 (TCR, V domains shown)
Valpha: B1 Valpha with E94S, L95S, S97E, S101R
Vbeta: B1 Vbeta
With B12, the binding result in assay [3] was “recognises”.

B13: TCR0066 (TCR, V domains shown)
Valpha: B1 Valpha with G98A, A99L, G100V, S101T
Vbeta: B1 Vbeta
With B13, the binding result in assay [3] is “recognises”.

B14: TCR0010 (TCR, V domains shown)
Valpha: B1 Valpha with E94D, L95S, Y96F, S97E
Vbeta: B1 Vbeta
Consider B14, for which the binding result in assay [3] is reported as “recognises”.

B15: TCR0028 (TCR, V domains shown)
Valpha: B1 Valpha with E94D, L95M, Y96A, S97N
Vbeta: B1 Vbeta
In the case of B15, in assay [3], the binding result is listed as “recognises”.

B16: TCR0068 (TCR, V domains shown)
Valpha: B1 Valpha with G98P, A99R, G100L, S101M, Y102W
Vbeta: B1 Vbeta
In the case of B16, the binding result in assay [3] was “recognises”.

B17: TCR0070 (TCR, V domains shown)
Valpha: B1 Valpha with G98A, A99T, G100V, S101D
Vbeta: B1 Vbeta
On to B17, for which the binding result in assay [3] was “recognises”.

B18: TCR0018 (TCR, V domains shown)
Valpha: B1 Valpha with E94D, Y96S, S97D
Vbeta: B1 Vbeta
In the case of B18, the binding result in assay [3] was “recognises”.
